Measurements: publication PMC2679042 (2009)

T1: proMMP-2 (Homo sapiens, UniProt P08253)
T1 chain: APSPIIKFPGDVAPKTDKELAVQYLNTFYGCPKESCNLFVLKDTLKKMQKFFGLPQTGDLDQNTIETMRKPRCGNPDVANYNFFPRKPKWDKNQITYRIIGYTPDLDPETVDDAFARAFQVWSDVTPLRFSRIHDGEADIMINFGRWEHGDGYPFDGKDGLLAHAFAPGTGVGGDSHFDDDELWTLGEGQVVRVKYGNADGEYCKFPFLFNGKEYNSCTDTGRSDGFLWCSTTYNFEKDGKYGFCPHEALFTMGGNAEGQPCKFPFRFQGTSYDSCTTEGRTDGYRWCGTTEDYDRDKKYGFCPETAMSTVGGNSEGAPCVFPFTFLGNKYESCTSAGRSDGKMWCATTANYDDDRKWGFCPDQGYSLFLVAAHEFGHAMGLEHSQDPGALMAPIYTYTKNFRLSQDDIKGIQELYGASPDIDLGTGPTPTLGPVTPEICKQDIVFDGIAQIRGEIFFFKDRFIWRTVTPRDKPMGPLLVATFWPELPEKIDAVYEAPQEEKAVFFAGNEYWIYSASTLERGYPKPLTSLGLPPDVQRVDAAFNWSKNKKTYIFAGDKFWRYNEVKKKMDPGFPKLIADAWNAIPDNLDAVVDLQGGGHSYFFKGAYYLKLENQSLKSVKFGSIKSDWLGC


Assays:
[1] = target: proMMP-2 (Homo sapiens) (UniProt P08253); conditions: cited from earlier work
[2] = target: T1, proMMP-2; experiment: tryptophan fluorescence quenching

Row | Kd [2] [nM] | Molecule | Kd [1] [nM]
1 | – | bone sialoprotein (from UniProt P21815) | 2.9
2 | 270 | bone sialoprotein (protein) FSMKNLHRRVKIEDSEENGVFKYRPRYYLYKHAYFYPHLKRFPVQGSSDSSEENGDDSSEEEEEEEETSNEGENNEESNEDEDSEAENTTLSATTLGYGEDATPGTGYTGLAAIQLPKKAGDITNKATKEKESDEEEEEEEEGNENEESEAEVDENEQGINGTSTNSTEAENGNGSSGGDNGEEGEEESVTGANAEDTTETGRQGKGTSKTTTSPNGGFEPTTPPQVYRTTSPPFGKTTTVEYEGEYEYTGANEYDNGYEIYESENGEPRGDNYRAYEDEYSYFKGQGYDGYDGQNYYHHQ | –
